From patent US20140087995A1 (published 2014)
Numbered stars: 1 amine (or outer) side, 2 acyl side, 3 side chain; on linkers, the order of the positions; unused ones are H or OH. Bridge positions count the residues as written; N and C are the ends. Side chains are listed from the residue outwards. Ends that are not written are not given here. * marks the point of attachment. C20 diacid = O=C(O)CCCCCCCCCCCCCCCCCCC(=O)*; γGlu = O=C(O)[C@H](CCC(=O)[*:2])N[*:1]; AEEA = NCCOCCOCC(=O)O

T1: human calcitonin receptor (human, UniProt P30988 25-474)
T1 sequence (looked up): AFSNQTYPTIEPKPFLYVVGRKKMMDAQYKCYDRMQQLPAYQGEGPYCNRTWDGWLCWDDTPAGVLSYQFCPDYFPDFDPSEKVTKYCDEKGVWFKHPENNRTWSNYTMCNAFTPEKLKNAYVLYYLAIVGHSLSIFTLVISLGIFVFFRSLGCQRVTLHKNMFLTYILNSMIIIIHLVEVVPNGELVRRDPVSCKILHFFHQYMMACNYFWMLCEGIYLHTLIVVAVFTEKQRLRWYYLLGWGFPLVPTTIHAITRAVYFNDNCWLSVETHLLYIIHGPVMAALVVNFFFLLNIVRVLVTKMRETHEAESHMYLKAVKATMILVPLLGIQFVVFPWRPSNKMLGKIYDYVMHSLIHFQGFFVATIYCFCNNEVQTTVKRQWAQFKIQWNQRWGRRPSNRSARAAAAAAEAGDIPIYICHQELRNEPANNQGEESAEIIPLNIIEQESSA

T2: human amylin receptor (amylin 3(a) receptor: human calcitonin receptor co-expressed with RAMP-3) (human, UniProt P30988 25-474; O60896 24-148, limits assumed)
T2 sequence (looked up) 1: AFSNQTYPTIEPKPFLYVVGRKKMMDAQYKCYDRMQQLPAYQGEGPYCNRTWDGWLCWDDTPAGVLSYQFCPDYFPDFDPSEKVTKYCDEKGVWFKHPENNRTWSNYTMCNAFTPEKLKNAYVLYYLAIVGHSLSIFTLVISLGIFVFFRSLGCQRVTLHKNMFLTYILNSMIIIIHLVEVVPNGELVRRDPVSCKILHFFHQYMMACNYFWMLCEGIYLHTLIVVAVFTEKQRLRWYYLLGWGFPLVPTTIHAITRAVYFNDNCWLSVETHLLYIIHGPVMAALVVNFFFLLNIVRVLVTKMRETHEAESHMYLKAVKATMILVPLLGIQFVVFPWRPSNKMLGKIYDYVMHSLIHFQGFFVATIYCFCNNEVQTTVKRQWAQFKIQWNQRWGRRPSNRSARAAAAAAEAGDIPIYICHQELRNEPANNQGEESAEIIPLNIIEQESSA
T2 sequence (looked up) 2: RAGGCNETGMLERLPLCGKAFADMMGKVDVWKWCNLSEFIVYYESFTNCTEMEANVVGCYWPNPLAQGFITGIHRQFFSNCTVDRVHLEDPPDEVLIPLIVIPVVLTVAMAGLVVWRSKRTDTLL


Columns and labels:
[1] = target: T1, human calcitonin receptor; assay: cell-based or functional assay
[2] = target: T2, human amylin receptor (amylin 3(a) …); assay: cell-based or functional assay

Row | Binder | Ratio hCT/hAmylin funct. (hCTR EC50 against hAmylin-R EC50) [1] | hCTR funct. EC50 [1] | hAmylin-R funct. EC50 [2]
1 | {C20 diacid-γGlu}-GRCNTATCATQRLANFLRHSSPNFGAIPSSTNVGSHTY-NH2 (disulfide 3-8; SMILES CC[C@H](C)[C@H](NC(=O)[C@H](C)NC(=O)CNC(=O)[C@H](Cc1ccccc1)NC(=O)[C@H](CC(N)=O)NC(=O)[C@@H]1CCCN1C(=O)[C@H](CO)NC(=O)[C@H](CO)NC(=O)[C@H](Cc1c[nH]cn1)NC(=O)[C@H](CCCNC(=N)N)NC(=O)[C@H](CC(C)C)NC(=O)[C@H](Cc1ccccc1)NC(=O)[C@H](CC(N)=O)NC(=O)[C@H](C)NC(=O)[C@H](CC(C)C)NC(=O)[C@H](CCCNC(=N)N)NC(=O)[C@H](CCC(N)=O)NC(=O)[C@@H](NC(=O)[C@H](C)NC(=O)[C@@H]1CSSC[C@H](NC(=O)[C@H](CCCNC(=N)N)NC(=O)CNC(=O)CC[C@H](NC(=O)CCCCCCCCCCCCCCCCCCC(=O)O)C(=O)O)C(=O)N[C@@H](CC(N)=O)C(=O)N[C@@H]([C@@H](C)O)C(=O)N[C@@H](C)C(=O)N[C@@H]([C@@H](C)O)C(=O)N1)[C@@H](C)O)C(=O)N1CCC[C@H]1C(=O)N[C@@H](CO)C(=O)N[C@@H](CO)C(=O)N[C@H](C(=O)N[C@@H](CC(N)=O)C(=O)N[C@H](C(=O)NCC(=O)N[C@@H](CO)C(=O)N[C@@H](Cc1c[nH]cn1)C(=O)N[C@H](C(=O)N[C@@H](Cc1ccc(O)cc1)C(N)=O)[C@@H](C)O)C(C)C)[C@@H](C)O, 38 residues: N-terminal extension by Gly (-1G); also called compound 47) | 6 | 1.32 nM | 0.222 nM
2 | K([AEEA-γGlu-C20 diacid])RCNTATCATQRLANFLRHSSPNFGAIPSSTNVGSHTY-NH2 (disulfide 3-8; N-terminus assumed; SMILES CC[C@H](C)[C@H](NC(=O)[C@H](C)NC(=O)CNC(=O)[C@H](Cc1ccccc1)NC(=O)[C@H](CC(N)=O)NC(=O)[C@@H]1CCCN1C(=O)[C@H](CO)NC(=O)[C@H](CO)NC(=O)[C@H](Cc1c[nH]cn1)NC(=O)[C@H](CCCNC(=N)N)NC(=O)[C@H](CC(C)C)NC(=O)[C@H](Cc1ccccc1)NC(=O)[C@H](CC(N)=O)NC(=O)[C@H](C)NC(=O)[C@H](CC(C)C)NC(=O)[C@H](CCCNC(=N)N)NC(=O)[C@H](CCC(N)=O)NC(=O)[C@@H](NC(=O)[C@H](C)NC(=O)[C@@H]1CSSC[C@H](NC(=O)[C@H](CCCNC(=N)N)NC(=O)[C@@H](N)CCCCNC(=O)COCCOCCNC(=O)CC[C@H](NC(=O)CCCCCCCCCCCCCCCCCCC(=O)O)C(=O)O)C(=O)N[C@@H](CC(N)=O)C(=O)N[C@@H]([C@@H](C)O)C(=O)N[C@@H](C)C(=O)N[C@@H]([C@@H](C)O)C(=O)N1)[C@@H](C)O)C(=O)N1CCC[C@H]1C(=O)N[C@@H](CO)C(=O)N[C@@H](CO)C(=O)N[C@H](C(=O)N[C@@H](CC(N)=O)C(=O)N[C@H](C(=O)NCC(=O)N[C@@H](CO)C(=O)N[C@@H](Cc1c[nH]cn1)C(=O)N[C@H](C(=O)N[C@@H](Cc1ccc(O)cc1)C(N)=O)[C@@H](C)O)C(C)C)[C@@H](C)O, 38 residues: N-terminal extension by Lys (-1K); also called compound 45) | 17 | 10.1 nM | 0.594 nM

Continued, values first:

Row | Ratio hCT/hAmylin funct. (hCTR EC50 against hAmylin-R EC50) [1] | hCTR funct. EC50 [1] | hAmylin-R funct. EC50 [2] | Binder
3 | 10.2 | 0.899 nM | 0.088 nM | {C20 diacid-γGlu}-GRCNTATCATQRLANFLRHSSPNFGAIPSSTNVGSNTY-NH2 (disulfide 3-8; SMILES CC[C@H](C)[C@H](NC(=O)[C@H](C)NC(=O)CNC(=O)[C@H](Cc1ccccc1)NC(=O)[C@H](CC(N)=O)NC(=O)[C@@H]1CCCN1C(=O)[C@H](CO)NC(=O)[C@H](CO)NC(=O)[C@H](Cc1c[nH]cn1)NC(=O)[C@H](CCCNC(=N)N)NC(=O)[C@H](CC(C)C)NC(=O)[C@H](Cc1ccccc1)NC(=O)[C@H](CC(N)=O)NC(=O)[C@H](C)NC(=O)[C@H](CC(C)C)NC(=O)[C@H](CCCNC(=N)N)NC(=O)[C@H](CCC(N)=O)NC(=O)[C@@H](NC(=O)[C@H](C)NC(=O)[C@@H]1CSSC[C@H](NC(=O)[C@H](CCCNC(=N)N)NC(=O)CNC(=O)CC[C@H](NC(=O)CCCCCCCCCCCCCCCCCCC(=O)O)C(=O)O)C(=O)N[C@@H](CC(N)=O)C(=O)N[C@@H]([C@@H](C)O)C(=O)N[C@@H](C)C(=O)N[C@@H]([C@@H](C)O)C(=O)N1)[C@@H](C)O)C(=O)N1CCC[C@H]1C(=O)N[C@@H](CO)C(=O)N[C@@H](CO)C(=O)N[C@H](C(=O)N[C@@H](CC(N)=O)C(=O)N[C@H](C(=O)NCC(=O)N[C@@H](CO)C(=O)N[C@@H](CC(N)=O)C(=O)N[C@H](C(=O)N[C@@H](Cc1ccc(O)cc1)C(N)=O)[C@@H](C)O)C(C)C)[C@@H](C)O, 38 residues: N-terminal extension by Gly (-1G); also called compound 46) [N^-1-[(4S)-4-carboxy-4-(19-carboxynonadecanoylamino)butanoyl]-Gly[Arg1,Arg17,Pro21,Pro27]-h-amylin]
4 | 17 | 1.97 nM | 0.116 nM | K([γGlu-C20 diacid])CNTATCATQRLANFLRHSSPNFGAIPSSTNVGSNTY-NH2 (disulfide 2-7; N-terminus assumed; SMILES CC[C@H](C)[C@H](NC(=O)[C@H](C)NC(=O)CNC(=O)[C@H](Cc1ccccc1)NC(=O)[C@H](CC(N)=O)NC(=O)[C@@H]1CCCN1C(=O)[C@H](CO)NC(=O)[C@H](CO)NC(=O)[C@H](Cc1c[nH]cn1)NC(=O)[C@H](CCCNC(=N)N)NC(=O)[C@H](CC(C)C)NC(=O)[C@H](Cc1ccccc1)NC(=O)[C@H](CC(N)=O)NC(=O)[C@H](C)NC(=O)[C@H](CC(C)C)NC(=O)[C@H](CCCNC(=N)N)NC(=O)[C@H](CCC(N)=O)NC(=O)[C@@H](NC(=O)[C@H](C)NC(=O)[C@@H]1CSSC[C@H](NC(=O)[C@@H](N)CCCCNC(=O)CC[C@H](NC(=O)CCCCCCCCCCCCCCCCCCC(=O)O)C(=O)O)C(=O)N[C@@H](CC(N)=O)C(=O)N[C@@H]([C@@H](C)O)C(=O)N[C@@H](C)C(=O)N[C@@H]([C@@H](C)O)C(=O)N1)[C@@H](C)O)C(=O)N1CCC[C@H]1C(=O)N[C@@H](CO)C(=O)N[C@@H](CO)C(=O)N[C@H](C(=O)N[C@@H](CC(N)=O)C(=O)N[C@H](C(=O)NCC(=O)N[C@@H](CO)C(=O)N[C@@H](CC(N)=O)C(=O)N[C@H](C(=O)N[C@@H](Cc1ccc(O)cc1)C(N)=O)[C@@H](C)O)C(C)C)[C@@H](C)O, also called compound 48) [N^ε1-[(4S)-4-carboxy-4-(19-carboxynonadecanoylamino)butanoyl]-[Arg17,Pro21,Pro27]-h-amylin]
